The values that follow are results of earlier work, collected in paper PMC5371392.

This series addresses KaiC (Synechococcus elongatus) (UniProt Q79PF4).
UniProt Q79PF4, sequence (Q79PF4 whole entry): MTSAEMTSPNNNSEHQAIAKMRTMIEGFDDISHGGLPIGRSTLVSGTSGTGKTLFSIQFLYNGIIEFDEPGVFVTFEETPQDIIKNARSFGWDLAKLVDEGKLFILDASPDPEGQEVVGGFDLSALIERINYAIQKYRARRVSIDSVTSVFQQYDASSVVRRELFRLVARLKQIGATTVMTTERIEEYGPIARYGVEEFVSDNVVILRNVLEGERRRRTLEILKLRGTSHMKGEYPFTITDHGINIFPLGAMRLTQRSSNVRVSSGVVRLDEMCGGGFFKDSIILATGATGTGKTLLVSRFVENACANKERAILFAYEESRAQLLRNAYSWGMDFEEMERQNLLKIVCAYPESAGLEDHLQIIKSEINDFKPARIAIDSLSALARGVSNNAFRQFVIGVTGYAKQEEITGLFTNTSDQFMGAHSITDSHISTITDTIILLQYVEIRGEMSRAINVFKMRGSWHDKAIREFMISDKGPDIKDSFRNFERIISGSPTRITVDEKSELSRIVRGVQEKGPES

The term Kd denotes the equilibrium constant for the complex coming apart. For KaiA (from UniProt Q79PF6), the Kd was 1 nM.
